The record followed here is patent US20240148885A1, “TARGETED BIFUNCTIONAL DEGRADERS” (YALE UNIVERSITY, priority 2021, published 2024).

Where two headings read alike, the source gives them in different places.

In test [1] the target is streptavidin AF488 (Streptomyces avidinii, UniProt P22629). In words: Degradation of streptavidin AF488 (FIG. 12). The test is classed as cell-based. The text has this: Some studies have been done on other bifunctional molecules comprising an LRP1 binding motif depicted in FIG. 2 and a biotin Target binding motif, wherein these bifunctional molecules also noncovalently bind streptavidin (FIG. 11).

Test [2] has as its system murine brain endothelial cells. The conditions noted are these: noncovalently bound streptavidin AF647 cargo, FIG. 8, FIG. 9.
Test [3] has as its target streptavidin AF647 (Streptomyces avidinii, UniProt P22629). In words: Saturable delivery (uptake) of streptavidin AF647 (FIG. 6). The conditions noted are these: increasing concentration of bifunctional molecule, cells not given. In kind it is cell-based.
Test [4] has as its target streptavidin (Streptomyces avidinii, UniProt P22629). Kind of test: ELISA: biotinylated Angiopep-2 binding to streptavidin (FIG. 7). In general terms: An ELISA detects its analyte on a solid surface through an enzyme-linked reagent.
The subject of test [5] is astrocytes. Kind of test: Cellular assay: internalization of streptavidin in astrocytes (FIG. 9). The test is classed as cell-based. The conditions noted are these: noncovalently bound cargo.

Sequence of streptavidin AF488 (P22629 25-183): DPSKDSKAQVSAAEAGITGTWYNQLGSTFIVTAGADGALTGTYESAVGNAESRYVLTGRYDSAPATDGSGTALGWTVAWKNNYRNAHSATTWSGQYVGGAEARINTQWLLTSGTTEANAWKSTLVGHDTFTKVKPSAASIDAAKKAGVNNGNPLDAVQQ
Sequence of streptavidin AF647 (P22629 25-183): as above
Sequence of streptavidin (P22629 25-183, species assumed): as the sequence (P22629 25-183) above

As for “Ac.Ac.Biotin Angiopep-2: Angiopep-2 modified via acetylation and bonded to a biotin Target binding motif”, in test [1], the “degradation of target protein streptavidin AF488” value is given as “mediated degradation of streptavidin AF488”.
Take biotinylated Angiopep-2: the “delivery / internalization of streptavidin into brain endothelial cells” value is “delivers streptavidin AF647 to murine brain endothelial cells” in test [2] and “mediated internalization of target protein Streptavidin” in test [2] (listed as Angiopep-2-Biotin). Also, the “level of streptavidin AF647 uptake” value in test [3] is given as “saturable delivery of streptavidin AF647”. Moreover, the “binding to streptavidin (ELISA)” value in test [4] is given as “binds streptavidin”. Besides, the “internalization of streptavidin into astrocytes” value in test [5] is on record as “mediated internalization of target protein Streptavidin”.
